Results on two compounds are retold here after paper PMC11503464, “Copper-61 is an advantageous alternative to gallium-68 for PET imaging of somatostatin receptor-expressing tumors: a head-to-head comparative preclinical study” (Frontiers in Nuclear Medicine, 2024).

For data set [1] the following is noted: in vivo; cited from earlier work.
For data set [2] the following is noted: mouse, in vivo; cited from earlier work.
The format of data set [3] is physicochemical. To be noted: pH 7.4. On the procedure: Briefly, the radiotracer (10 µl, 1 µM) was added to 1 ml of a 1:1 pre-saturated mixture of 1-octanol and phosphate-buffered saline (PBS pH 7.4). The solution was vortexed for 30 min and then centrifuged at 3,000 rpm to achieve phase separation. Aliquots of 0.1 ml from each phase were collected and measured in a γ-counter. The distribution coefficient was calculated as the average of the logarithmic values (n = 3) of the ratio between the radioactivity in the organic and PBS phases. [^68Ga]Ga-DOTA-TOC was used as a reference.

Another data set relates to HEK-SST2 xenografts. The following applies: female, athymic nude-Foxn1^nu/Foxn1^+, mouse, in vivo, 200 pmol, 1 h.
In another data set the test system is HEK-SST2 cells. The experiment in a line: Cellular uptake and distribution on intact HEK-SST2 cells. The format is cell-based, human. To be noted: specific uptake, after 4 h at 37°C. The method, then:
At the defined time points, the medium was removed, and the cells were washed twice with ice-cold PBS. The cells were then treated twice for 5 min with ice-cold glycine solution (0.05 M, pH 2.8) to detach the cell membrane-bound fraction (acid released). Afterward, the cells containing the internalized fraction were detached using NaOH 1 M at 37°C and collected for measurement. [^68Ga]Ga-DOTA-TOC was evaluated as a reference.

For “[^68Ga]Ga-DOTA-Tyr^3-octreotate [[^68Ga]Ga-DOTA-TATE]”, the Effective dose in data set [1] is listed as 0.021-0.0257 mSv/MBq. Further, in data set [2], the Kidney dose is recorded as 9.01 × 10^−2 mGy/MBq and the Total-body absorbed dose is on record as 1.27 × 10^−3 mGy/MBq.

As for `C[C@@H](O)[C@@H]1NC(=O)[C@H](CCCCN)NC(=O)[C@@H](Cc2c[nH]c3ccccc23)NC(=O)[C@H](Cc2ccc(O)cc2)NC(=O)[C@@H](NC(=O)[C@@H](Cc2ccccc2)NC(=O)CN2CCN(CC(=O)O)CCN(CC(=O)O)CCN(CC(=O)O)CC2)CSSC[C@@H](C(=O)N[C@H](CO)[C@@H](C)O)NC1=O` [[^68Ga]Ga-DOTA-TOC] [[^68Ga]Ga-DOTA-Tyr^3-octreotide, metal not drawn], in data set [1], the Effective dose is 0.021-0.0257 mSv/MBq. Also, the “log D(O/PBS pH 7.4)” value in data set [3] is recorded as −3.18 ± 0.11. In the data set on HEK-SST2 xenografts, this compound returned an Adrenal uptake of 2.57 ± 0.78 %IA/g, a Blood uptake of 0.63 ± 0.09 %IA/g, a Bone uptake of 0.49 ± 0.07 %IA/g and a Heart uptake of 0.27 ± 0.03 %IA/g. Also, in the data set with HEK-SST2 xenografts, the Intestine uptake came to 1.39 ± 0.28 %IA/g, the Kidneys uptake is recorded as 8.37 ± 0.84 %IA/g, the Liver uptake amounted to 0.58 ± 0.07 %IA/g and the Lung uptake is given as 1.68 ± 0.32 %IA/g. In the data set on HEK-SST2 xenografts, this compound returned a Pancreas uptake of 4.77 ± 1.16 %IA/g, a Pituitary uptake of 3.29 ± 0.63 %IA/g, an SST2-tumor uptake of 6.64 ± 1.11 %IA/g and a Stomach uptake of 3.73 ± 0.36 %IA/g. In the data set on HEK-SST2 cells, the “Cellular uptake (surface bound + internalized)” value worked out at 79.0 ± 3.1%.
